In patent publication US20100098730A1:
Each block holds one substance with its values, some of them ahead of it.

Assays:
[1] = target: human FcRn (heterodimer of an alpha chain and a β2-microglobulin subunit), soluble (human) (UniProt P55899); test: SPR (BIAcore 3000), IgG injected over chip-coupled human FcRn, pH 6.0, 25 C; apparent (bivalent) KD estimated from the steady state curves of FIG. 1, Run 2
[2] = target: human FcRn (heterodimer of an alpha chain and a β2-microglobulin subunit), soluble (human) (UniProt P55899); test: SPR, bivalent IgG over human FcRn-coupled chip, steady state, apparent KD, pH 6.0, 25 C, second run (about two fold higher RU of FcRn)
[3] = target: cynomolgus monkey FcRn (cyno alpha chain and cyno β2-microglobulin), soluble (cynomolgus monkey) (UniProt Q8SPV9); test: SPR (BIAcore 3000), soluble cyno FcRn injected over chip-coupled IgG, pH 6.0, 25 C; monovalent KD (a) determined by ratio of koff to kon
UniProt Q8SPV9, sequence (Q8SPV9 24-297 limits assumed, chain 1 of 2): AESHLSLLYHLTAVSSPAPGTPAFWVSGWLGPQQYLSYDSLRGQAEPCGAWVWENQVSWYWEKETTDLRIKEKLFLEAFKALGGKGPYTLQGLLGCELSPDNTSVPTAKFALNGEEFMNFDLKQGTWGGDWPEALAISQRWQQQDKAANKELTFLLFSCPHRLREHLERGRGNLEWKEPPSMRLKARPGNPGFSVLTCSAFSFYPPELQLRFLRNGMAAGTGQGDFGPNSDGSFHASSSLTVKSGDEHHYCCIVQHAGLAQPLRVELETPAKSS
UniProt Q8SPV9, sequence (Q8SPW0 21-119 limits assumed, chain 2 of 2, further chain): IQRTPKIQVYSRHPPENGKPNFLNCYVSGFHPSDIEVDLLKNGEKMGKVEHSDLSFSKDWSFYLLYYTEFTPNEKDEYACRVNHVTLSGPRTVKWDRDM

[4] = target: human FcRn (heterodimer of an alpha chain and a β2-microglobulin subunit), soluble (human) (UniProt P55899); test: SPR (BIAcore 3000), soluble human FcRn injected over chip-coupled IgG, pH 6.0, 25 C; monovalent KD (a) determined by ratio of koff to kon
[5] = target: human FcRn (heterodimer of an alpha chain and a β2-microglobulin subunit), soluble (human) (UniProt P55899); test: SPR (BIAcore 3000), IgG injected over chip-coupled human FcRn, pH 6.0, 25 C; apparent (bivalent) KD estimated from the steady state curves of FIG. 1, Run 1
[6] = target: cynomolgus monkey FcRn (cyno alpha chain and cyno β2-microglobulin), soluble (cynomolgus monkey) (UniProt Q8SPV9); test: SPR (BIAcore 3000), soluble cyno FcRn injected over chip-coupled IgG, pH 6.0, 25 C; monovalent KD (b) determined by fitting the steady state RU against concentration
[7] = target: human FcRn (heterodimer of an alpha chain and a β2-microglobulin subunit), soluble (human) (UniProt P55899); test: SPR (BIAcore 3000), soluble human FcRn injected over chip-coupled IgG, pH 6.0, 25 C; monovalent KD (b) determined by fitting the steady state RU against concentration
[8] = target: human FcRn (heterodimer of an alpha chain and a β2-microglobulin subunit), soluble (human) (UniProt P55899); test: SPR (BIAcore), soluble human FcRn injected over chip-coupled IgG, pH 6.0, 25 C, monovalent KD
[9] = target: human FcRn (heterodimer of an alpha chain and a β2-microglobulin subunit), soluble (human) (UniProt P55899); test: FcRn affinity at pH 6.0, as shown in FIG. 24 (BIAcore, human FcRn)
[10] = target: human FcRn (heterodimer of an alpha chain and a β2-microglobulin subunit), soluble (human) (UniProt P55899); test: SPR, soluble human FcRn injected over IgG-coupled chip, monovalent KD, pH 6.0, 25 C
[11] = target: human FcRn (heterodimer of an alpha chain and a β2-microglobulin subunit), soluble (human) (UniProt P55899); test: SPR, human FcRn; fold over wildtype, summarized from FIGS. 4 and 5
[12] = target: cynomolgus monkey FcRn (cyno alpha chain and cyno β2-microglobulin), soluble (cynomolgus monkey) (UniProt Q8SPV9); test: SPR (BIAcore 3000), soluble cyno FcRn injected over chip-coupled IgG, pH 6.0, 25 C
[13] = target: human FcRn (heterodimer of an alpha chain and a β2-microglobulin subunit), soluble (human) (UniProt P55899); test: SPR (BIAcore 3000), soluble human FcRn injected over chip-coupled IgG, pH 6.0, 25 C

Kd [1]: 0.07 µM
Substance: anti-VEGF (Bevacizumab) IgG1 variant T307Q/Y436I (antibody)

Kd [2]: 0.25 µM
Substance: anti-VEGF (Bevacizumab) IgG1 variant N434A (antibody)

Kd [3]: 0.24 µM | Kd [4]: 0.24 µM | Kd [5]: 0.18 µM | Kd [6]: 0.241 µM | Kd [7]: 0.258 µM
Substance: anti-VEGF (Bevacizumab) IgG1 variant T307Q/N434A (antibody)

Kd [1]: 0.09 µM
Substance: anti-VEGF (Bevacizumab) IgG1 variant T307Q/A378V (antibody)

Kd [3]: 0.153 µM | Kd [4]: 0.146 µM | Kd [6]: 0.16 µM | Kd [7]: 0.148 µM
Substance: anti-VEGF (Bevacizumab) IgG1 variant T307Q/E380A/N434S (antibody)

Kd [8]: 0.044 µM
Substance: N434W (antibody)

Kd [3]: 0.0666 µM | Kd [4]: 0.072 µM | Kd [1]: 0.008 µM | Kd [6]: 0.0699 µM | Kd [7]: 0.076 µM
Substance: anti-VEGF (Bevacizumab) IgG1 variant V308P/N434A (antibody)

fold higher FcRn affinity at pH 6.0 compared to the wildtype antibody [9]: 3 fold
Substance: IgG1 variant N434A of a different human antibody

fold improvement of affinity over the wild-type IgG1 [10]: 450 fold | Kd [8]: 0.0037 µM
Substance: anti-HER2 (trastuzumab) IgG1 variant M252Y/V308P/N434Y (antibody)

Kd [1]: 0.03 µM
Substance: anti-VEGF (Bevacizumab) IgG1 variant T307Q/A378V/Y436I (antibody)

Kd [1]: 0.5 µM
Substance: anti-VEGF (Bevacizumab) IgG1 variant A378V (antibody)

Kd [8]: 0.57 µM
Substance: N434A (antibody)

Kd [1]: 0.25 µM
Substance: anti-VEGF (Bevacizumab) IgG1 variant T307Q (antibody)

Bivalent Affinity Fold increase at pH 6.0 [11]: 9 fold | Bivalent Affinity Fold increase at pH 7.4 [11]: 6 fold | Monovalent Affinity Fold increase at pH 6.0 [11]: 3 fold | koff [12]: 0.218 s⁻¹ | kon [12]: 480000 M⁻¹ s⁻¹ | koff [13]: 0.166 s⁻¹ | kon [13]: 400000 M⁻¹ s⁻¹ | Kd [3]: 0.45 µM | Kd [4]: 0.42 µM | Kd [1]: 0.1 µM | Kd [6]: 0.47 µM | Kd [7]: 0.47 µM
Substance: anti-VEGF (Bevacizumab) IgG1 variant N434H (antibody)
